B1: huB8G11F2B7G5E8-V1 (antibody, human IgG4 S228P, kappa, V domains shown)
VH: EVQLVQSGAEVKKPGATVKISCKASGFNIKDTYMHWVKQAPGKGLEWVGRIDPTNGYTIYASKFQGKATITADTSSNTAYMELSSLRSEDTAVYHCVSRRPWFAYWGQGTLVTVSS
VL: DIVMTQTPLSLSVTPGQPASISCRSSQSIVHSNGNTYLEWYLQKPGQSPQLLIYKVTNRFSGVPDRFSGSGSGTDFTLKISRVEAEDVGVYYCFQGSHVPYTFGQGTKLEIKR
notes: Humanized, human IgG4/kappa; also called huBSG11F2B7G5E8-V1
B2: huB8G11F2B7G5E8-V3 (antibody, human IgG4 S228P, kappa, V domains shown)
VH: EVQLVQSGAEVKKPGATVKISCKASGFNIKDTYMHWVQQAPGKGLEWVGRIDPTNGYTIYASKFQGKATITADTSSNTAYMELSSLRSEDTAVYHCVSRRPWFAYWGQGTLVTVSS
VL: DIVMTQTPLSLSVTPGQPASISCRSSQSIVHSNGNTYLEWYLQKPGQSPQLLIYKVTNRFSGVPDRFSGSGSGTDFTLKISRVEAEDVGVYYCFQGSHVPYTFGQGTKLEIKR
notes: Humanized, human IgG4/kappa; also called huBSG11F2B7G5E8-V3
B3: huB8G11F2B7G5E8-V5 (antibody, human IgG4 S228P, kappa, V domains shown)
VH: EVQLVQSGAEVKKPGATVKISCKASGFNIKDTYMHWVKQAPGKGLEWVGRIDPTNGYTIYASKFQGRATITADTSSNTAYMELSSLRSEDTAVYHCVSRRPWFAYWGQGTLVTVSS
VL: DIVMTQTPLSLSVTPGQPASISCRSSQSIVHSNGNTYLEWYLQKPGQSPQLLIYKVTNRFSGVPDRFSGSGSGTDFTLKISRVEAEDVGVYYCFQGSHVPYTFGQGTKLEIKR
notes: Humanized, human IgG4/kappa; also called huBSG11F2B7G5E8-V5
B4: huC2C1A1A1-V4 (antibody, human IgG4 S228P, kappa, V domains shown)
VH: EVQLVESGGGLVQPGGSLRLSCAASGFTFSTYGMSWVRQAPGKGLVWVSTINSNGGSTSYPDSVKGRFTISRDNAKNTLYLQMNSLRAEDTAVYYCARFFRFRNAMDYWGQGTLVTVSS
VL: DIQMTQSPSSLSASVGDRVTITCRTSENIYSYLAWYQQKPGKAPKFLIYNAKTLAEGVPSRFSGSGSGTDFTLTISSLQPEDFATYYCQHYYGPPTWTFGQGTKVEIKR
notes: Humanized, human IgG4/kappa
B5: huC2C1A1A1-V1 (antibody, human IgG4 S228P, kappa, V domains shown)
VH: EVQLVESGGGLVQPGGSLRLSCAASGFTFSTYGMSWVRQAPGKGLVWVSTINSNGGSTSYPDSVKGRFTISRDNAKNTLYLQMNSLRAEDTAVYYCARFFRFRNAMDYWGQGTLVTVSS
VL: DIQMTQSPSSLSASVGDRVTITCRTSENIYSYLAWYQQKPGKAPKLLIYNAKTLAEGVPSRFSGSGSGTDFTLTISSLQPEDFATYYCQHYYGPPTWTFGQGTKVEIKR
notes: Humanized, human IgG4/kappa
B6: huC2C1A1A1-V2 (antibody, human IgG4 S228P, kappa, V domains shown)
VH: EVQLVESGGGLVQPGGSLRLSCAASGFTFSTYGMSWVRQAPGKGLVWVSTINSNGGSTSYPDSVKGRFTISRDNAKNTLYLQMNSLRAEDTAVYYCARFFRFRNAMDYWGQGTLVTVSS
VL: DIQMTQSPSSLSASVGQRVTITCRTSENIYSYLAWYQQKQGKPPRFLIYNAKTLAEGVPSRFSGSGSGTEFTLTITSLQAEDFGVYYCQHYYGPPTWTFGPGTKLEIKR
notes: Humanized, human IgG4/kappa
B7: huC2C1A1A1-V3 (antibody, human IgG4, V domains shown)
VH: EVQLVESGGGLVQPGGSLRLSCAASGFTFSTYGMSWVRQAPGKGLVWVSTINSNGGSTSYPDSVKGRFTISRDNAKNTLYLQMNSLRAEDTAVYYCARFFRFRNAMDYWGQGTLVTVSS
VL: DIQMTQSPSSLSASVGDRVTITCRTSENIYSYLAWYQQKPGKAPKFLVYNAKTLAEGVPSRFSGSGSGTDFTLTISSLQPEDFATYYCQHYYGPPTWTFGQGTKVEIKR
notes: Humanized, human IgG4/kappa
B8: huC2C1A1A1-V5 (antibody, human IgG4 S228P, kappa, V domains shown)
VH: EVQLVESGGGLVQPGGSLRLSCAASGFTFSTYGMSWVRQSPDKRLEWVSTINSNGGSTSYPDSVKGRFTISRDNAKNTLYLQMRSLRAEDTAVYYCARFFRFRNAMDYWGQGTLVTVSS
VL: DIQMTQSPSSLSASVGDRVTITCRTSENIYSYLAWYQQKPGKAPKLLIYNAKTLAEGVPSRFSGSGSGTDFTLTISSLQPEDFATYYCQHYYGPPTWTFGQGTKVEIKR
notes: Humanized, human IgG4/kappa
B9: huC2C1A1A1-V7 (antibody, human IgG4, V domains shown)
VH: EVQLVESGGGLVQPGGSLRLSCAASGFTFSTYGMSWVRQSPDKRLEWVSTINSNGGSTSYPDSVKGRFTISRDNAKNTLYLQMRSLRAEDTAVYYCARFFRFRNAMDYWGQGTLVTVSS
VL: DIQMTQSPSSLSASVGDRVTITCRTSENIYSYLAWYQQKPGKAPKFLVYNAKTLAEGVPSRFSGSGSGTDFTLTISSLQPEDFATYYCQHYYGPPTWTFGQGTKVEIKR
notes: Humanized, human IgG4/kappa
B10: huC2C1A1A1-V8 (antibody, human IgG4 S228P, kappa, V domains shown)
VH: EVQLVESGGGLVQPGGSLRLSCAASGFTFSTYGMSWVRQSPDKRLEWVSTINSNGGSTSYPDSVKGRFTISRDNAKNTLYLQMRSLRAEDTAVYYCARFFRFRNAMDYWGQGTLVTVSS
VL: DIQMTQSPSSLSASVGDRVTITCRTSENIYSYLAWYQQKPGKAPKFLIYNAKTLAEGVPSRFSGSGSGTDFTLTISSLQPEDFATYYCQHYYGPPTWTFGQGTKVEIKR
notes: Humanized, human IgG4/kappa
B11: huC2C1A1A1-V9 (antibody, human IgG4 S228P, kappa, V domains shown)
VH: EVQLVESGGGLVQPGGSLRLSCAASGFTFSTYGMSWVRQAPGKGLVLVATINSNGGSTSYPDSVKGRFTISRDNAKNTLYLQMNSLRAEDTAVYYCARFFRFRNAMDYWGQGTLVTVSS
VL: DIQMTQSPSSLSASVGDRVTITCRTSENIYSYLAWYQQKPGKAPKLLIYNAKTLAEGVPSRFSGSGSGTDFTLTISSLQPEDFATYYCQHYYGPPTWTFGQGTKVEIKR
notes: Humanized, human IgG4/kappa
B12: huC2C1A1A1-V11 (antibody, human IgG4, V domains shown)
VH: EVQLVESGGGLVQPGGSLRLSCAASGFTFSTYGMSWVRQAPGKGLVLVATINSNGGSTSYPDSVKGRFTISRDNAKNTLYLQMNSLRAEDTAVYYCARFFRFRNAMDYWGQGTLVTVSS
VL: DIQMTQSPSSLSASVGDRVTITCRTSENIYSYLAWYQQKPGKAPKFLVYNAKTLAEGVPSRFSGSGSGTDFTLTISSLQPEDFATYYCQHYYGPPTWTFGQGTKVEIKR
notes: Humanized, human IgG4/kappa
B13: huC2C1A1A1-V12 (antibody, human IgG4 S228P, kappa, V domains shown)
VH: EVQLVESGGGLVQPGGSLRLSCAASGFTFSTYGMSWVRQAPGKGLVLVATINSNGGSTSYPDSVKGRFTISRDNAKNTLYLQMNSLRAEDTAVYYCARFFRFRNAMDYWGQGTLVTVSS
VL: DIQMTQSPSSLSASVGDRVTITCRTSENIYSYLAWYQQKPGKAPKFLIYNAKTLAEGVPSRFSGSGSGTDFTLTISSLQPEDFATYYCQHYYGPPTWTFGQGTKVEIKR
notes: Humanized, human IgG4/kappa
B14: huC2C1A1A1-V13 (antibody, human IgG4 S228P, kappa, V domains shown)
VH: EVQLVESGGGLVQPGGSLRLSCAASGFTFSTYGMSWVRQAPGKGLVWVATINSNGGSTSYPDSVKGRFTISRDNAKNTLYLQMNSLRAEDTAVYYCARFFRFRNAMDYWGQGTLVTVSS
VL: DIQMTQSPSSLSASVGDRVTITCRTSENIYSYLAWYQQKPGKAPKLLIYNAKTLAEGVPSRFSGSGSGTDFTLTISSLQPEDFATYYCQHYYGPPTWTFGQGTKVEIKR
notes: Humanized, human IgG4/kappa
B15: huC2C1A1A1-V16 (antibody, human IgG4 S228P, kappa, V domains shown)
VH: EVQLVESGGGLVQPGGSLRLSCAASGFTFSTYGMSWVRQAPGKGLVWVATINSNGGSTSYPDSVKGRFTISRDNAKNTLYLQMNSLRAEDTAVYYCARFFRFRNAMDYWGQGTLVTVSS
VL: DIQMTQSPSSLSASVGDRVTITCRTSENIYSYLAWYQQKPGKAPKFLIYNAKTLAEGVPSRFSGSGSGTDFTLTISSLQPEDFATYYCQHYYGPPTWTFGQGTKVEIKR
notes: Humanized, human IgG4/kappa
B16: huC2C1A1A1-V6 (antibody, human IgG4 S228P, kappa, V domains shown)
VH: EVQLVESGGGLVQPGGSLRLSCAASGFTFSTYGMSWVRQSPDKRLEWVSTINSNGGSTSYPDSVKGRFTISRDNAKNTLYLQMRSLRAEDTAVYYCARFFRFRNAMDYWGQGTLVTVSS
VL: DIQMTQSPSSLSASVGQRVTITCRTSENIYSYLAWYQQKQGKPPRFLIYNAKTLAEGVPSRFSGSGSGTEFTLTITSLQAEDFGVYYCQHYYGPPTWTFGPGTKLEIKR
notes: Humanized, human IgG4/kappa
B17: huC2C1A1A1-V10 (antibody, human IgG4 S228P, kappa, V domains shown)
VH: EVQLVESGGGLVQPGGSLRLSCAASGFTFSTYGMSWVRQAPGKGLVLVATINSNGGSTSYPDSVKGRFTISRDNAKNTLYLQMNSLRAEDTAVYYCARFFRFRNAMDYWGQGTLVTVSS
VL: DIQMTQSPSSLSASVGQRVTITCRTSENIYSYLAWYQQKQGKPPRFLIYNAKTLAEGVPSRFSGSGSGTEFTLTITSLQAEDFGVYYCQHYYGPPTWTFGPGTKLEIKR
notes: Humanized, human IgG4/kappa

What follows are binders tested against T1, recombinant human IL4Rα-his protein (in house made) (human, UniProt P24394 26-232, limits assumed) (assay: SPR (Biacore), antibody captured, IL4Rα-his flowed).
T1 construct: also called Human IL4Ra-his
Work on B1 yielded a Kd of 3.73 nM, a koff of 0.00208 s⁻¹ and a kon of 557000 M⁻¹ s⁻¹.
Binder B2 has a Kd of 3.57 nM, a koff of 0.00199 s⁻¹ and a kon of 558000 M⁻¹ s⁻¹.
Work on B3 yielded a Kd of 4.13 nM, a koff of 0.00241 s⁻¹ and a kon of 584000 M⁻¹ s⁻¹.

Biological target: T1, recombinant human IL4Rα-his protein (in …)
Experiment: SPR (Biacore), antibody captured, IL4Rα-his flowed
Remark: another data set of the same source
With B4 the Dissociation % was 0.2%, the “End (RU)” value was 49.6 RU and the Kd was < 0.022 nM. For the same binder, the “Start (RU)” value was 49.5 RU, the koff was < 1e-05 s⁻¹ and the kon was 455000 M⁻¹ s⁻¹.
With B5 the Dissociation % was 0.23%, the “End (RU)” value was 44 RU and the Kd was < 0.0773 nM. For the same binder, the “Start (RU)” value was 43.9 RU, the koff was < 1e-05 s⁻¹ and the kon was 129000 M⁻¹ s⁻¹.
For B6, the Dissociation % was -0.2%, the “End (RU)” value was 50.3 RU and the Kd was < 0.0442 nM. The “Start (RU)” value was 50.4 RU, the koff was < 1e-05 s⁻¹ and the kon was 226000 M⁻¹ s⁻¹.
With B7 the Dissociation % was -0.62%, the “End (RU)” value was 48.3 RU and the Kd was < 0.0389 nM. The “Start (RU)” value was 48.6 RU, the koff was < 1e-05 s⁻¹ and the kon was 257000 M⁻¹ s⁻¹.
For B8, the Dissociation % was -2.28%, the “End (RU)” value was 64.3 RU and the Kd was 0.0283 nM. The “Start (RU)” value was 65.8 RU, the koff was 7.5e-05 s⁻¹ and the kon was 2.65e+06 M⁻¹ s⁻¹.
In the case of B9, the Dissociation % is reported as -0.66%, the “End (RU)” value is reported as 60.1 RU and the Kd is reported as < 0.038 nM. For the same binder, the “Start (RU)” value was 60.5 RU, the koff was < 1e-05 s⁻¹ and the kon was 263000 M⁻¹ s⁻¹.
B10 was tested, and the Dissociation % was -1.23%, the “End (RU)” value was 64.4 RU and the Kd was < 0.036 nM. The “Start (RU)” value was 65.2 RU, the koff was < 1e-05 s⁻¹ and the kon was 278000 M⁻¹ s⁻¹.
For B11, the Dissociation % was -0.24%, the “End (RU)” value was 41.1 RU and the Kd was < 0.0507 nM. The “Start (RU)” value was 41.2 RU, the koff was < 1e-05 s⁻¹ and the kon was 197000 M⁻¹ s⁻¹.
With B12 the Dissociation % was -0.92%, the “End (RU)” value was 53.7 RU and the Kd was < 0.0303 nM. The “Start (RU)” value was 54.2 RU, the koff was < 1e-05 s⁻¹ and the kon was 330000 M⁻¹ s⁻¹.
For B13, the Dissociation % was -1.88%, the “End (RU)” value was 52.1 RU and the Kd was 0.047 nM. The “Start (RU)” value was 53.1 RU, the koff was 1.42e-05 s⁻¹ and the kon was 302000 M⁻¹ s⁻¹.
In the case of B14, the Dissociation % is reported as 0.82%, the “End (RU)” value is reported as 36.7 RU and the Kd is reported as < 0.0838 nM. For the same binder, the “Start (RU)” value was 36.4 RU, the koff was < 1e-05 s⁻¹ and the kon was 119000 M⁻¹ s⁻¹.
B15 was tested, and the Dissociation % was -0.42%, the “End (RU)” value was 47.1 RU and the Kd was < 0.0338 nM. For the same binder, the “Start (RU)” value was 47.3 RU, the koff was < 1e-05 s⁻¹ and the kon was 296000 M⁻¹ s⁻¹.
With B16 the Dissociation % was -0.59%, the “End (RU)” value was 50.6 RU and the Kd was < 0.0261 nM. The “Start (RU)” value was 50.9 RU, the koff was < 1e-05 s⁻¹ and the kon was 383000 M⁻¹ s⁻¹.
B17 was tested, and the Dissociation % was -1.54%, the “End (RU)” value was 63.9 RU and the Kd was < 0.0304 nM. The “Start (RU)” value was 64.9 RU, the koff was < 1e-05 s⁻¹ and the kon was 329000 M⁻¹ s⁻¹.

Reference: patent US20230105029A1 (CHIA TAI TIANQING PHARMACEUTICAL GROUP, published 2023)
